Experimental data as given in patent US20180271973A1.

Target: CH505 transmitted/founder (T/F) Env gp120 (HIV-1)
Assay: surface plasmon resonance

CH103 UCA (unmutated common ancestor of the CH103 CD4 binding site bnAb lineage) (antibody)
Kd: 200 nM
